{"source": "patent US7723070B2", "about": "“Overexpression of aminoacyl-tRNA synthetases for efficient production of engineered proteins containing amino acid analogues” (California Institute of Technology, priority 2000, dated 2010)", "molecules": {"B1": {"name": "mDHFR: mouse dihydrofolate reductase with N-terminal hexahistidine sequence, test protein (protein, UniProt P00375 2-187, looked up)", "Dihydrofolate reductase": "VRPLNCIVAVSQNMGIGKNGDLPWPPLRNEFKYFQRMTTTSSVEGKQNLVIMGRKTWFSIPEKNRPLKDRINIVLSRELKEPPRGAHFLAKSLDDALRLIEQPELASKVDMVWIVGGSSVYQEAMNQPGHLRLFVTRIMQEFESDTFFPEIDLGKYKLLPEYPGVLSEVQEEKGIKYKFEVYEKKD", "modifications": "N-terminal His6 tag"}}, "tested_on": "B834(DE3) or CAG18491 hosts with pQE15/pREP4 or pQE15-MRS/pREP4", "assay": "Translational activity: mDHFR synthesis, statements covering several bacterial hosts (with pQE15 or pQE15-MRS)", "type": "cell-based, E. coli", "details": "each of CAG18491/pQE15/pREP4 and CAG18491/pQE15-MRS/pREP4", "description": "Methionine analogues were synthesized via alkylation of diethylacetamidomalonate, as previously described (As described in Example I, infra; J. C. M. van Hest, D. A. Tirrell, FEBS Lett. 1998, 428, 68-70). Cultures of B834(DE3)/pQE15-MRS/pREP4 or B834(DE3)/pQE15/pREP4 or CAG18491/pQE15-MRS/pREP4 or CAG18491/pQE15/pREP4 in M9AA media were grown to an optical density of 0.90, and the cells were sedimented by centrifugation. The M9AA medium was prepared by supplementing sterile M9 medium with […] of each of the amino acids, 1 mM MgSO4, 0.2 wt % glucose, 1 mg/ml thiamine chloride, and […] calcium chloride. The antibiotics ampicillin and kanamycin were added at concentrations of 200 mg/l and 35 mg/l, respectively.\nCells were washed three times with M9 salts and resuspended to an optical density of 0.90 in M9 test media containing 19 amino acids plus 1) neither methionine nor analogue (negative control); 2) methionine (60 mg/liter, positive control); or 3) an analogue of interest (60 mg/liter). To test the effect of increasing the level of supplementation of the analogues, a set of experiments was also conducted in which the medium was supplemented with 500 mg/liter of methionine or the amino acid analogue. Expression of mDHFR was induced by addition of 0.4 mM isopropyl β-D-thiogalactopyranoside (IPTG), and protein synthesis was monitored after 4.5 hours."}
{"molecule": "B1", "values": [{"measurement": "yield of mDHFR in M9AA medium", "result": "approximately 30 mg"}]}
